For five molecules, Kd and koff results are on record in PMC12282080 (2025).

The target of experiment [1] is T1, SFTSV Gn glycoprotein (G19-K452, C3 genotype) (SFTSV (severe fever with …)). The experiment in a line: BLI.
Experiment [2] deals with T1, SFTSV Gn glycoprotein (G19-K452, C3 …). Description: BLI. The source holds these as a separate data set. On the technique in general: Biolayer interferometry detects binding as a change in optical thickness at a sensor tip.

B1: SD4-X monoclonal antibody (human IgG1) (antibody, V domains shown)
VH: QVQLVESGGGVVQPGRSLRLSCAASGFTFSSYGMHWVRQAPGKGLEWVAVISYDGSNKYYADSVKGRFTISRDNSKNTLYLQMNSLRAEDTAVYYCAKDRDYYGSGFFDYWGQGTLVTVSS
VL: DIQMTQSPSSLSASVGDRVTITCQASQDISNHLNWYQEKPGKVPKLLIYEASNVETGVPSRFSGSGSGTDFTFTISSLQPEDIATYYCQQYDNLPYTFGQGTKLEIK
The term Kd denotes the concentration at which binding is half-saturated. As a reminder, the koff is a measure of how fast the partners let go of each other. A high value points to a short-lived complex. In experiment [1], B1 returned a Kd of 1.11 nM. For the same molecule, the koff in experiment [2] stood at 0.000108 s⁻¹.

B2: SD4-S monoclonal antibody (human IgG1) (antibody, V domains shown)
VH: QVQLVESGGGVLQPGRSLRLSCAASGFTFSGYGMHWVRQAPGKGLEWVAVISYDGSEKNYGDSVKGRFTISRDNSKNTLYLQINSLRTEDRAVYYCAKDRDYFGSGFFDYWGQGTLVTVSS
VL: DIQMTQSPSSLSASVGDRVTITCQASQDITKYLNWYQQKPGKAPKLLIFEASNLETGVPSRFSGSGSGTDFTFTISSLQPEDFATYYCQQYGDFPLTFGGGTKVEIK
Consider B2, for which the Kd in experiment [1] stood at 0.196 nM. This molecule also displayed a koff in experiment [2] of 2.9e-05 s⁻¹.

B3: SD4 monoclonal antibody (human IgG1) (antibody, V domains shown)
VH: QVQLVESGGGVVQPGRSLRLSCAASGFPFSGYGMHWVRQAPGKGLEWVAVISYDGSEKNYADSVKGRFTISRDNSKNTLYLQMNSLRVEDTAVYYCAKDRDYYGSGFYDYWGQGTLVTVSS
VL: DIQMTQSPSSLSASVGDRVTITCQASQHISNHLNWYQQKPGTAPTLLIYEASNLETGVPSRFSGSGSGTDFSFTISSLRPEDFATYYCQQYDNFPLTFGPGTTMDIK
As to B3, the koff in experiment [2] was 1.18e-05 s⁻¹.

B4: SD12 monoclonal antibody (human IgG1) (antibody, V domains shown)
VH: EVQLLESGGGLVQPGGSLRLSCAASGFIFSSYAMSWVRQAPGKGLEWVSAISGSGGSTYYADSVKGRFTISRDNSKNTLYLQMNSLRDEDTAVYYCAKDRSYVSSGFFDDWGQGTLVTVSS
VL: DIQMTQSPSSLSASVGDRVTITCQASQDISNYLNWYQQRPGKAPKLLIFEASNLETGVPSRFSGSGSGTDFTFTISSLQPEDIATYYCQQYENLLYTFGQGTKLEIK
B4 showed a Kd in experiment [1] of 2.37 nM. In experiment [2], this molecule gave a koff of 0.000179 s⁻¹.

B5: SD22 monoclonal antibody (human IgG1) (antibody, V domains shown)
VH: QVQLVESGGGVVQPGRSLRLSCAASGFTFSGFGMHWVRQAPGKGLEWVALISYDGSDTYYSDSVKGRFTISRDNSKNTLYLQLKSLRPDDTAVYYCVGDRDYFGSGFFDHWGQGTLVTVSS
VL: DIQMTQSPSSLSASIGDRVTITCRASRHITNHLNWYQHKPGRAPKLLIYEASNLQAGVPSRFSGSGSGTDFTFTISSLQPEDFATYYCQQYDNLPPAFGGGTKVDIK
B5 had a Kd in experiment [1] of 0.205 nM. The dissociation rate constant (koff) in experiment [2] came out at 4.01e-05 s⁻¹.
